From patent US20220289837A1, “Cystic Fibrosis Transmembrane Conductance Regulator Stabilizing Agents” (VIB VZW, priority 2019, published 2022)

Molecular target: T1, F508del-CFTR (Homo sapiens, UniProt P13569, DEL508-508)
T1 construct: expressed in transfected cells
Assay: Forskolin induced organoid swelling (FIS) assay
Type: cell-based
Settings: F508del homozygous intestinal organoids, lentiviral Nb, 3 μM VX-809 24 h before, Fsk and 3 μM VX-770, 2 h
From the text: Intestinal organoids are 3D epithelial structures grown from a single Lgr5+ stem cell (originating from the crypts of the GI-tract) with an internal lumen that recapitulates key features of the intestinal tissue architecture. When differentiated, the organoids form villus and crypt-like structures. CFTR is located at the apical membrane lining the internal lumen and its activation leads to rapid organoid swelling, in direct correlation with the amount of functional CFTR. This model system thus provides a physiologically relevant assay to evaluate the potential of new therapies with high translational value. CF patient-derived organoids expressing F508del-CFTR from two alleles were transduced with lentiviral vectors encoding the sequence of either a stabilizing nanobody (T2a) or a control nanobody. 24 h before FIS assay, corrector 3 μM VX-809 or DMSO was added. Organoids were stimulated by Fsk (0,8 μM) and 3 μM VX-770 just before FIS. […]
Transduction of human intestinal organoids was performed as described previously (Vidovic, Carlon et al. 2016, Ensinck, De Keersmaecker et al. 2020). […] Organoids were stimulated with forskolin (5 μM) and VX-770 (3 μM) or DMSO, and analyzed by confocal live cell microscopy at 37° C. for 120 min (LSM800, Zeiss, Zen Blue). The total organoid area increase relative to t=0 of forskolin treatment was quantified.

T1 sequence (P13569 with tags, fused parts or gaps DEL508-508): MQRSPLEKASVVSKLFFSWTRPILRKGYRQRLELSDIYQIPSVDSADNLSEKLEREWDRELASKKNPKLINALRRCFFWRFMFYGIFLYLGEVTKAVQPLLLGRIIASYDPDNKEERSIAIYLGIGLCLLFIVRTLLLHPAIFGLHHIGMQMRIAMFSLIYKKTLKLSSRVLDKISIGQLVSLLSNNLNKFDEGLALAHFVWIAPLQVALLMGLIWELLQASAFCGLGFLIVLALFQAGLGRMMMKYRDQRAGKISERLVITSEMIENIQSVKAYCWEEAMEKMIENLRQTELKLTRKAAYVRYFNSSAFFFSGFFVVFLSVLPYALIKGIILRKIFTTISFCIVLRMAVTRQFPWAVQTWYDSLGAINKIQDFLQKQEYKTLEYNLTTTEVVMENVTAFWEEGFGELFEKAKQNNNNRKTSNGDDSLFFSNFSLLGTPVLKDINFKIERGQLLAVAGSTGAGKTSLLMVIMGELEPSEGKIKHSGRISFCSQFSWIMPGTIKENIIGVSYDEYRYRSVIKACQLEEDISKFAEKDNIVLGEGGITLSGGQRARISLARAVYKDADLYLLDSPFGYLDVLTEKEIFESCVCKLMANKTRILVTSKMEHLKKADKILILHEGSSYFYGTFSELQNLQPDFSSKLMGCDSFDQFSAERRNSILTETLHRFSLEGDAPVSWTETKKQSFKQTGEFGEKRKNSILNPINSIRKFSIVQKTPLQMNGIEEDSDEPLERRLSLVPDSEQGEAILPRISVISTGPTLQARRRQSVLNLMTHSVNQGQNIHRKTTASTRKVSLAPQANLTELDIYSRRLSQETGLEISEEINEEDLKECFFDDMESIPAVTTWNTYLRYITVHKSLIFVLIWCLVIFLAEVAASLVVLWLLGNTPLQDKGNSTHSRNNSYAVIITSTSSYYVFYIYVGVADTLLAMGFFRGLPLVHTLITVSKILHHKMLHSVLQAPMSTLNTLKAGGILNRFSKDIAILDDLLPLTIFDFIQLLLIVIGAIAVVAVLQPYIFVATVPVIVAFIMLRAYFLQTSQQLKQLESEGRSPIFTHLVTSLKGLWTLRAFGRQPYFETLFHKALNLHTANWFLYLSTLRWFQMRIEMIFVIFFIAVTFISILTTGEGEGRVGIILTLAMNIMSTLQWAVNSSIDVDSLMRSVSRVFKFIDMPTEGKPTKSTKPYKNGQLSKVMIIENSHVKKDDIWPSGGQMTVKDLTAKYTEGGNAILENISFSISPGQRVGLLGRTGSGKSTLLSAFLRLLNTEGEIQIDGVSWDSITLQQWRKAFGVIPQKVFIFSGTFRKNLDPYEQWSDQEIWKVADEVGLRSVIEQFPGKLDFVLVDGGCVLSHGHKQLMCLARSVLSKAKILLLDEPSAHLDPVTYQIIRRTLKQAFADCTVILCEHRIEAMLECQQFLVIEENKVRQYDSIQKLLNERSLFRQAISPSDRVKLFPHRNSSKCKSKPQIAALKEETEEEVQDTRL

B1: T2a: NBD1-specific CFTR-stabilizing nanobody, SEQ ID NO:3, binds epitope 1 (protein)
VHH: QVQLQESGGGLVQAGGSLRLSCAASGSIFRIDAMGWYRQAPGKQRELVAHSTSGGSTDYADSVKGRFTISRDNAKNTVYLQMNSLKPEDTAVYYCNADVRTRWYASNNYWGQGTQVTVSS
modifications: T2a Nanobody amino acid sequence
CFTR response (relative increase in organoid surface area): significantly increased CFTR functionality over time
